Experimental findings from US20200216532A1 (Ablynx, published 2020) are described below.

Changes are numbered by the printed parent chain. Names may count otherwise.

First the molecules themselves.
B1: SEQ ID NO: 87 (VHH)
VHH: EVQLVESGGGSVQPGGSLRLSCAASRSIGRLDRMGWYRHRPGEPRELVATITGGSSINYGDSVKGRFTISIDNSKNTVYLQMNSLRPEDTAVYYCNFNKYVTSRDTWGQGTLVTVGG
notes: Ex. 8
B2: SEQ ID NO: 76 (VHH)
VHH: B1 VHH with S11L, G116S, G117S
notes: Ex. 8
B3: SEQ ID NO: 74 (VHH)
VHH: B1 VHH with S11L, G116S, G117S
notes: Ex. 8
B4: SEQ ID NO: 75 (VHH)
VHH: B1 VHH with S11L, G116S, G117S
notes: Ex. 8
B5: SEQ ID NO: 79 (VHH)
VHH: B1 VHH with S11L, G116S, G117S
notes: Ex. 8
B6: SEQ ID NO: 73 (VHH)
VHH: B1 VHH with S11L
notes: Ex. 8; S112G, S113G
B7: SEQ ID NO: 88 (VHH)
VHH: B1 VHH with T114Q, G116S, G117S
notes: Ex. 8; L11S, T110Q
B8: SEQ ID NO: 77 (VHH)
VHH: B1 VHH with S11L, G116S, G117S
notes: Ex. 8
B9: SEQ ID NO: 89 (VHH)
VHH: B1 VHH with P14A, T114Q
notes: Ex. 8

The target of the first assay is T1, purified interference factor(s), Donor A.
T1 construct: also called interference in serum from Donor A
Nature of the assay: SPR, interference factor immobilized. On the technique in general: In SPR one partner is held on a chip, and binding of the other changes the refractive index at the surface.
Consider B1, for which the “% of binding of reference (=100%)” value came out at 51%.
On the same count and under the same terms, under B2 stands 2%; under B3, 4%.
Still for that read-out and setting: under B4 stands 1%; under B5, 1%.
Same read-out and setting: under B6 stands 6%.
B7: the “% of binding of reference (=100%)” value came to 1%.
Still for that read-out and setting: the same measure for B8: 2%; for B9: 14%.

In a further assay the target is T2, purified interference factor(s), Donor B.
T2 construct: also called interference in serum from Donor B
Nature of the assay: SPR, interference factor immobilized.
As for B1, the “% of binding of reference (=100%)” value worked out at 5%.
Still for that read-out and setting: the same measure for B2: 17%; for B3: 41%; for B4: 11%.
On the same count and under the same terms, under B5 stands 17%.
On to B6, for which the “% of binding of reference (=100%)” value was determined as 8%.
Same read-out and setting: the same measure for B7: 5%; for B8: 12%; for B9: 5%.

The target in the next assay is T3, purified interference factor(s), Donor C.
T3 construct: also called interference in serum from Donor C
The assay can be described thus: SPR, interference factor immobilized.
Consider B1, for which the “% of binding of reference (=100%)” value was 39%.
With B2, the “% of binding of reference (=100%)” value was 20%.
On the same count and under the same terms, the same measure for B3: 33%; for B4: 16%; for B5: 13%.
The same measure, in the same setting: the same measure for B6: 9%; for B7: 11%.
Regarding B8, the “% of binding of reference (=100%)” value worked out at 13%.
On the same count and under the same terms, the same measure for B9: 17%.
